Measured values published in US12679888B2, “IL-18 binding protein (IL-18BP) and antibodies for treating inflammatory diseases” (AB2 BIO SA, priority 2015, dated 2026).
“And” between values parts separate entries of the source, which are not always exact repeats. Equal entries are not always repeated. Where two headings read alike, the source gives them in different places.

T1: human interleukin-18 (Homo sapiens, UniProt Q14116)
T1 sequence (Q14116 37-193): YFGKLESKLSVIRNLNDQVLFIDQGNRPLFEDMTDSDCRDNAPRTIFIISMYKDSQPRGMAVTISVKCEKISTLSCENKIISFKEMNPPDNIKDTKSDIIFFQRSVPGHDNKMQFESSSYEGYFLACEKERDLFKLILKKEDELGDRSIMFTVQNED

T2: IL-18 (Homo sapiens, UniProt Q14116)
T2 sequence (Q14116 37-193): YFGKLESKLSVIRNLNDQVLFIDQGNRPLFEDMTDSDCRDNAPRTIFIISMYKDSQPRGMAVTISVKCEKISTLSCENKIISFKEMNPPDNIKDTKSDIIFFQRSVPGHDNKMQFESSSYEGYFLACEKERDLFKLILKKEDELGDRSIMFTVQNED

T3: IL-18 previously complexed to IL-18BP (Homo sapiens, UniProt Q14116)
T3 sequence (Q14116 37-193): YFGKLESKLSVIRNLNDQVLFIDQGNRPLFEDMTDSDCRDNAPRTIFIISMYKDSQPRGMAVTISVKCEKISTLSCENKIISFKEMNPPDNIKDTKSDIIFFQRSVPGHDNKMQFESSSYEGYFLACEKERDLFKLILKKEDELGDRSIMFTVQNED
T3 sequence (O95998 31-194 partner): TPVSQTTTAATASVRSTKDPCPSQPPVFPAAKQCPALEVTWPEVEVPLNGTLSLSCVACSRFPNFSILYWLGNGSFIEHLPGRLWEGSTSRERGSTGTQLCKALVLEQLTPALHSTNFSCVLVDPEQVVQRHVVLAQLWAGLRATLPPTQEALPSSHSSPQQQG

B1: Antibody 107C6: monoclonal anti-IL-18 antibody; VH SEQ ID NO 9, VK SEQ ID NO 10 (antibody, V domains shown)
VH: QIQLVQSGPELKKPGETVKLSCRASGYTFTNYGMNWVKQAPGKGLKWMGWINTYSGVPTYADDFKGQFAFSLETSAATAFLQINNLKDEDTATYFCAREGYSTTRSMDYWGQGTSVTVSS
VL: DIVMSQSPSSLAVSAGEKVTMSCKSSQSLLDSRTRKNYLVWYQQKPGQSPKLLIYWASTRGSGVPDRFTGSGSGTDFTLTISSVQAEDLAVYYCKQSYNLRTFGGGTKLEIK
modifications: Antibody 107C6 VH variable domain sequence; Antibody 107C6 VK variable domain sequence
B2: Antibody 108F8: monoclonal anti-IL-18 antibody; VH SEQ ID NO 11, VK SEQ ID NO 12 (antibody, V domains shown)
VH: QIQLVQSGPDSKKPGETVKLSCRASGYTFTNYGMNWVKQAPGKGLKWMGWINTYSGVPTYADDFKGQFAFSLETSAATAFLQINNLKDEDTATYFCAREGYSTTRSMDYWGQGTSVTVSS
VL: DIVMSQSPSSLAVSAGEKVTMSCKSSQSLLDSRTRKNYLVWYQQKPGQSPKLLIYWASTRGSGVPDRFTGSGSGTDFTLTISSVQAEDLAVYYCKQSYNLRTFGGGTKLEIK
modifications: Antibody 108F8 VH variable domain sequence; Antibody 108F8 VK variable domain sequence
B3: Antibody 132H4: monoclonal anti-IL-18 antibody; VH SEQ ID NO 23, VK SEQ ID NO 24 (antibody, V domains shown)
VH: EVKLVESGGGLVKPGGSLKLSCAASGFTFSNYAMSWVRQNPAKRLEWVATISSGGANIYYPDSVKGRFIISRDNARNTLYLQMSSLRSEDTAMYYCARGDYFNHFWFAYWGQGTLVTVSA
VL: DVLMTQTPLSLPVSLGDQASISCRSSQSIVHSNGNTYLEWYLQKPGQSPKFLIYKVSNRFSGVPDRFSGSGSGTDFTLKINRVEAEDLGIYYCFQGSHVPWTFGGGTKLEIK
modifications: Antibody 132H4 VH variable domain sequence; Antibody 132H4 VK variable domain sequence
B4: Antibody 109A6: monoclonal anti-IL-18 antibody; VH SEQ ID NO 13, VK SEQ ID NO 14 (antibody, V domains shown)
VH: EVQLQQSGAELVKPGASVKLSCTASGFKIKDTYIHWVIQRPAQGLEWIGRIDPANGNTIYGSKFQGKATLTADTSSNTAYIHLSSLTSGDSAVYYCAGYVWFAYWGQGTLVTVSA
VL: DVVMTQVPLSLPVSLGDQASISCRSSQRLVHSNGNTYLHWFLQKPGQSPKLLIYTVSNRFSGVPDRFSGSGSGTDFTLKISRVEAEDLGVYFCSQSTLVPWTFGGGTKLEIK
modifications: Antibody 109A6 VH variable domain sequence; Antibody 109A6 VK variable domain sequence
B5: Antibody 131B4: monoclonal anti-IL-18 antibody; VH SEQ ID NO 18, 103 or 109, VK SEQ ID NO 19 (antibody, V domains shown)
VH: EVQVQQSGAELVKPGASVKLSCTASGFKIKDTYIHWLKQRPEQGLEWIGRIDPANGNTIYGSKFQGKATITADTSSNTAYIQLSSLTSGDTAVYFCAGYVWFAYWGQGTLVTVSA
VL: DAVLTQTPLSLPVSLGDQASISCTSSQSLVHSNGNTYLHWYLQKPGQSPKLLIYKVSDRFSGVPDRFSGSGSGTDFTLMITRVEAEDLGVYFCSQSSLVPWTFGGGTKLEVK

What was measured:
human interleukin-18 = molecular target: T1, human interleukin-18; assay: Luminex screening first step: monoclonal antibodies binding on IL-18; settings: IL-18 attached to Luminex beads
Description: Mice were vaccinated against human interleukin-18 using a technology allowing immunization with properly folded proteins. Prior to immunization, genetically modified mice were selected for major histocompatibility complexes supposedly sensitive to IL-18 surface area epitopes binding IL-18BP. Following immunization, B cells were isolated from spleen and hybridized following standard hybridoma technology. Hybridoma were sorted onto microplates and then tested for expression of monoclonal anti-IL-18 antibodies targeting IL-18 epitopes included in IL-18BP binding site. The screening was performed in 3 sequential and selective steps: […]

IL-18 [1] = molecular target: T2, IL-18; assay: Luminex screening second step: biotinylated IL-18BP binding on IL-18 previously complexed to monoclonal antibody
Description: Second step. Potential antibodies targeting IL-18 on IL-18BP binding site were rescreened in competition with IL-18BP, but not with IL-18BP fusions with Fc antibody domains, or other type of fusions, in order to prevent false antibody positive candidates due to steric hindrance created by the fused peptide. For this, monoclonal antibodies were bound to Luminex beads carrying IL-18. The complex was then exposed to biotinylated IL-18BP in order to identify interference to previously identified anti-IL-18 antibodies (see Table 7, Column #2).

[2] = molecular target: T3, IL-18 previously complexed to IL-18BP; assay: Luminex screening third step: monoclonal antibody binding on IL-18 previously complexed to IL-18BP; settings: for fluorescence signal after binding IL-18 in the presence of IL-18BP: third screening step
Description: Third step. A third screening program was undertaken with Luminex beads linked to IL-18BP and then complexed to interleukin-18, assuring the presentation of properly folded recombinant IL-18 to positive antibody candidates.

IL-18 [3] = molecular target: T2, IL-18; assay: KD of monoclonal antibodies by titration with a defined IL-18 molarity (EC50, Law of Mass Action); format: binding
Method: The respective KD values of each monoclonal antibody was calculated following titration of the antibodies with a defined IL-18 molarity and derived from the obtained EC50 values with the Law of Mass Action (see above).

Molecule | Monoclonal antibodies binding on IL-18, Fluorescence intensity (human interleukin-18) | IL-18BP binding on IL-18 previously complexed to monoclonal antibody, Fluorescence intensity (IL-18 [1]) | fluorescence signal after binding IL-18 in the presence of IL-18BP [2] | Kd (IL-18 [3]; mean of determinations, read-out: KD, Mean) | Kd (IL-18 [3]; single determinations, read-out: KD) | Column #3 Monoclonal antibody binding on IL-18 previously complexed to IL-18BP, Fluorescence intensity ([2]; Luminex beads linked to IL-18BP, complexed to IL-18)
B1 | 26 250 | 1 389 | very low fluorescence signal |  |  | 
B2 | 25 126 | 1 292 | very low fluorescence signal |  |  | 
B3 | 23 839 | 1 488 | very low fluorescence signal |  |  | 
B4 | 25 848 |  | very low fluorescence signal |  |  | 
B5 | 24 838 | 1 656 | very low fluorescence signal | 0.015 nM | 0.02 nM and 0.01 nM | 41
